# According to patent US12612465B2, “Formulations comprising PCSK9 specific monoclonal antibodies” (Amgen Inc., priority 2012, dated 2026):
# Key:
# PCSK1 = molecular target: T1, PCSK1 (Homo sapiens, UniProt P29120); test: 11F1 binding specificity competition assay; settings: 0.4 μg/mL 11F1, 0 to 20 μg/mL competitor
# T1 construct: purchased R&D Systems
# T1 sequence (P29120 111-753): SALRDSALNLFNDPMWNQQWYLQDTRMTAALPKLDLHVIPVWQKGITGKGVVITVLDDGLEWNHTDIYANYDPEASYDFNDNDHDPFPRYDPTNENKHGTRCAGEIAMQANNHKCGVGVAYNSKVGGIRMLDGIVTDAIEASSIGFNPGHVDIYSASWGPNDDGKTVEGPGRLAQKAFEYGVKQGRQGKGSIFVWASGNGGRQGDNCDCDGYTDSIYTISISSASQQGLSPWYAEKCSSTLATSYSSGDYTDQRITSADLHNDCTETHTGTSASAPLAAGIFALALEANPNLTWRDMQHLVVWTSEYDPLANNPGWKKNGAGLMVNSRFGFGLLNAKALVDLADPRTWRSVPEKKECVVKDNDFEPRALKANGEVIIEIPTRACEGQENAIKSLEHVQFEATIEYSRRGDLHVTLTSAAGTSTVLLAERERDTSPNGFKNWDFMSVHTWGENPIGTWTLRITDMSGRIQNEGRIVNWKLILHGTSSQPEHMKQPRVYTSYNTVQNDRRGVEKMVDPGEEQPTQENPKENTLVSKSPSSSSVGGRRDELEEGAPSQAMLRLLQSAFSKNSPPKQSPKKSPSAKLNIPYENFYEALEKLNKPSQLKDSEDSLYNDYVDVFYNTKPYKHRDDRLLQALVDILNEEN
# Experimental: (§1) Biotinylated PCSK9, diluted in buffer A (25 mM Tris, 150 mM NaCl, 0.1% BSA, 0.05% tween, pH 7.5) was bound to neutravidin coated 96 well plates at a concentration of 0.2 μg/mL, for one hour incubation at room temperature. Separately, 0.4 μg/mL of 11F1 was incubated for one hour at room temperature with various concentrations (ranging from 0 to 20 μg/mL) of either PCSK1, PCSK2, PCSK7, PCSK9 or furin (R&D Systems, Minneapolis, Minn.) (diluted in buffer A w/o tween). Furin inhibitor, at 4.5 μg/mL, was included with all furin containing reactions. The PCSK9 coated streptavidin plate was washed with buffer A and the antibody/proprotein convertase mixture was added to the plate and incubated at room temperature for one hour. After washing, bound antibody was detected by incubation with goat-α-human Fc-HRP (160 ng/mL, diluted in buffer A) (Jackson Laboratories, Bar Harbor, Me.) followed by TMB substrate. The reaction was stopped with 1 N HCl and the absorbance was read at a wavelength of 450 nm on a Spectramax Plus 384 spectrophotometer (Molecular Devices Inc., Sunnyvale, Calif.).
# (§2) This assay relied on the ability of proprotein convertase in solution to compete for the binding of 11F1 to plate-captured PCSK9. […] All results were expressed as the mean OD450 value±standard deviation versus concentration of the proprotein convertase. […] Therefore, at the protein concentrations studied, 11F1 binds only to PCSK9 and not to the other proprotein convertase family members tested.
# PCSK7 = molecular target: T2, PCSK7 (Homo sapiens, UniProt Q16549); test: 11F1 binding specificity competition assay; settings: 0.4 μg/mL 11F1, 0 to 20 μg/mL competitor
# T2 construct: purchased R&D Systems
# T2 sequence (Q16549 142-785): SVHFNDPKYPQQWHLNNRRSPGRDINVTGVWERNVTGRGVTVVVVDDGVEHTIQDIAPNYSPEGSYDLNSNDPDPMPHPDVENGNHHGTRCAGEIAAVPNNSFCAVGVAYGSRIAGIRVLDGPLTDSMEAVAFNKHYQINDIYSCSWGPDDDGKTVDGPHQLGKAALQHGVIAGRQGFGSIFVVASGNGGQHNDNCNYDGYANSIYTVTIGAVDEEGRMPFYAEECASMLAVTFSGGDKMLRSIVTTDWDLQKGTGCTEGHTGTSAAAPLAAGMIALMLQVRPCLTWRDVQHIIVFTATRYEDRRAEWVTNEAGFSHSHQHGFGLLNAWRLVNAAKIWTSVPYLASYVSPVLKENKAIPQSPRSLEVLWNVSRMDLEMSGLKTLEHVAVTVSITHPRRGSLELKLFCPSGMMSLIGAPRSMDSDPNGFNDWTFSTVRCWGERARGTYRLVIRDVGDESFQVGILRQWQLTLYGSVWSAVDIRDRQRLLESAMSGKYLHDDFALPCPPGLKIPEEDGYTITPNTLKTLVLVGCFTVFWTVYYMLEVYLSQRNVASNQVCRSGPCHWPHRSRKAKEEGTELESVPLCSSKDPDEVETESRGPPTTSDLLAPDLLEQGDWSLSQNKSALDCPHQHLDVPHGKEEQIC
# Experimental: as §1, §2
# [1] = Pharmacokinetics in mice expressing human PCSK9 by AAV; assay type: in vivo, mouse; settings: 30 mg/kg intravenous
# Experimental: Serum concentrations of antibody were determined using a sandwich ELISA assay. Polyclonal goat anti-human Fc IgG and an HRP-labeled goat anti-human IgG Fcγ polyclonal reagent (both from Jackson ImmunoResearch Laboratories Inc, West Grove, Pa.) were used as the capture and the detection antibody, respectively. A 3,3′,5,5′ tetramethylbenzidine (TMB) substrate solution reacted with peroxide, and in the presence of horse radish peroxidase (HRP), created a colorimetric signal that was proportional to the amount of the respective anti-PCSK9 antibody bound by the capture reagent. The intensity of the color (optical density, OD) was measured at 450 nm minus 650 nm using a microplate reader (Spectra Max Plus 384). Data was analyzed using Watson version 7.0.0.01 (Thermo Scientific, Waltham, Mass.) data reduction package with a Logistic (auto-estimate) regression of separately prepared standard curves. The lower limit of quantification (LLOQ) for the assay was […].
# Non-compartmental analysis (NCA) was performed on serum concentrations using the pre-determined nominal time points for each subject using WinNonlin Enterprise, version 5.1.1 (Pharsight, St. Louis, Mo.). […] NCA parameters reported include: apparent half-life (t½), area under the serum concentration-time curve from time zero to the last measured concentration (AUC0-t), and apparent serum clearance (CL0-t). […]
substance,measurement,setting,value
"11F1: anti-PCSK9 ABP, light/heavy variable region SEQ ID NO 465/463 [Antibody 11F1]",effect of pre-incubation with PCSK1 in solution on 11F1 binding to plate-captured PCSK9,PCSK1,did not significantly impact the binding
same,effect of pre-incubation with PCSK7 in solution on 11F1 binding to plate-captured PCSK9,PCSK7,did not significantly impact the binding
same,"AUC0-t exposures, estimated CL0-t and apparent half-lives of 11F1 vs 8A3",[1],equivalent
